Laboratory results taken from PMC9331509, “Insights into Domain Organization and Regulatory Mechanism of Cystathionine Beta-Synthase from Toxoplasma gondii” (International Journal of Molecular Sciences, 2022).
Where “and” joins values, the source holds several entries; their conditions need not be identical. Equal entries are not always repeated. Marks after values point to notes of the source that are not given here.

How the values were obtained:
full-length TgCBS = biological target: T1, full-length TgCBS (Toxoplasma gondii, UniProt A0A125YSJ9); assay: continuous CBL-LDH coupled assay; type: biochemical; settings: saturating L-Ser and L-Hcys; pH 9, 37 °C; activity after heat pre-treatment or trypsinolysis
T1 construct: gene TGME49_259180; full-length, residues 1-514; N-terminal 6xHis tag; E. coli Rosetta (DE3); ~57 kDa subunit; mainly dimer
T1 sequence (A0A125YSJ9 1-514): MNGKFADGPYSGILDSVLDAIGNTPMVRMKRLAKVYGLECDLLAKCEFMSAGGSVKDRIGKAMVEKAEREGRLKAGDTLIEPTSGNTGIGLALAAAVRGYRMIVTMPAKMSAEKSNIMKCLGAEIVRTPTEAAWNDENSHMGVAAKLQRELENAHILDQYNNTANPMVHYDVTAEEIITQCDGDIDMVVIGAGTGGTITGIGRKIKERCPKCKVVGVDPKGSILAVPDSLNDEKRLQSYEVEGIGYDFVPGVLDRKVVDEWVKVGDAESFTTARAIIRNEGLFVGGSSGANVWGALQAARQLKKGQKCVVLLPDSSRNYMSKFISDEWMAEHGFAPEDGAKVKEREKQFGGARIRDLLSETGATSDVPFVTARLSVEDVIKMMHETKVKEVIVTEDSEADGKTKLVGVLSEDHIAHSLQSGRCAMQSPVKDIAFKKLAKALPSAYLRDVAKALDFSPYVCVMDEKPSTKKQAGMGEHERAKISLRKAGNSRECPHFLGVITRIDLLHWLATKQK

TgCBS R353* = biological target: T2, TgCBS R353* (Toxoplasma gondii, UniProt A0A125YSJ9); assay: UV-Vis absorption ([…] nm internal aldimine); PLP content by NaOH, […] nm; type: binding; settings: stoichiometry; covalent internal aldimine, as purified
T2 construct: gene TGME49_259180; C-terminally truncated (stop codon at R353; residues 353-514, Bateman module, removed), residues 1-352; N-terminal 6xHis tag; pET21a, E. coli Rosetta (DE3); 39 kDa; mainly dimer

[1] = biological target: Proteolysed full-length TgCBS (39 kDa trypsin-resistant core) (Toxoplasma gondii); assay: SEC; 250 ug TgCBS incubated with trypsin 1:200 (w/w) for 120 min, stopped with a two-fold weight excess of soybean trypsin inhibitor, loaded on Superdex 200 10/300 GL; TgCBS R353* at 0.5 mg/mL run for comparison
[2] = biological target: the molecule itself; assay: SEC; Superdex 200 10/300 GL, protein at 1 mg/mL, 20 mM sodium phosphate buffer pH 8.5, 150 mM NaCl, 0.1 mM DTT; calibrated with standard proteins
[3] = biological target: the molecule itself; assay: native gel or EMSA; native PAGE at 8, 9, 10 and 12% polyacrylamide, 10 ug/lane, Coomassie staining, Ferguson plot analysis with molecular mass standards

N[C@@H](CCS)C(=O)O [L-Hcys]
continuous CBL-LDH coupled assay (full-length TgCBS): at saturating concentration of L-Ser and L-Hcys in the canonical reaction

N[C@@H](CO)C(=O)O [L-Ser]
continuous CBL-LDH coupled assay (full-length TgCBS): full-length TgCBS (solid triangles) and TgCBS R353* (open circles) on their steady-state initial velocity

Cc1ncc(COP(=O)(O)O)c(C=O)c1O [PLP]
PLP per monomer (TgCBS R353*): 0.9 ± 0.1 mol/mol

Proteolysed full-length TgCBS (39 kDa trypsin-resistant core) (from UniProt A0A125YSJ9 1-514) (domain or fragment)
stoichiometry N [1]: 2

B1: TgCBS R353* (TgCBS lacking the C-terminal Bateman module) (domain or fragment, Toxoplasma gondii, UniProt A0A125YSJ9 1-352, looked up)
chain: MNGKFADGPYSGILDSVLDAIGNTPMVRMKRLAKVYGLECDLLAKCEFMSAGGSVKDRIGKAMVEKAEREGRLKAGDTLIEPTSGNTGIGLALAAAVRGYRMIVTMPAKMSAEKSNIMKCLGAEIVRTPTEAAWNDENSHMGVAAKLQRELENAHILDQYNNTANPMVHYDVTAEEIITQCDGDIDMVVIGAGTGGTITGIGRKIKERCPKCKVVGVDPKGSILAVPDSLNDEKRLQSYEVEGIGYDFVPGVLDRKVVDEWVKVGDAESFTTARAIIRNEGLFVGGSSGANVWGALQAARQLKKGQKCVVLLPDSSRNYMSKFISDEWMAEHGFAPEDGAKVKEREKQFGGA
notes: Cystathionine beta-synthase (TgCBS), Toxoplasma gondii, residues 1-352 (catalytic domain and interdomain linker); 39 kDa subunit; made by site-directed mutagenesis on pET21a-TgCBS; also called C-terminally truncated TgCBS; truncated TgCBS; source: E. coli Rosetta (DE3), purified (Ni-sepharose, as the wild-type enzyme); not shown: His6, N-terminal, kept
stoichiometry N [2]: 2 and 4
stoichiometry N [3]: ~4 and ~2

B2: Full-length cystathionine beta-synthase from Toxoplasma gondii (enzyme, UniProt A0A125YSJ9 1-514, looked up)
chain: T1 sequence (A0A125YSJ9 1-514)
notes: the cited crystal structure PDB 6XWL is of a construct lacking an internal loop (TgCBS Δ466-491); PLP-dependent enzyme; also called TgCBS; full-length TgCBS; source: E. coli Rosetta (DE3), purified (Ni-sepharose); not shown: His6, N-terminal, kept
stoichiometry N [2]: 2 and 4
